Data reported in paper PMC2838799, “Aptamer Antagonists of Myelin-Derived Inhibitors Promote Axon Growth”.

Target: T1, Nogo-66 receptor (NgR)/Fc chimera (rat, UniProt Q99M75 27-447)
T1 sequence: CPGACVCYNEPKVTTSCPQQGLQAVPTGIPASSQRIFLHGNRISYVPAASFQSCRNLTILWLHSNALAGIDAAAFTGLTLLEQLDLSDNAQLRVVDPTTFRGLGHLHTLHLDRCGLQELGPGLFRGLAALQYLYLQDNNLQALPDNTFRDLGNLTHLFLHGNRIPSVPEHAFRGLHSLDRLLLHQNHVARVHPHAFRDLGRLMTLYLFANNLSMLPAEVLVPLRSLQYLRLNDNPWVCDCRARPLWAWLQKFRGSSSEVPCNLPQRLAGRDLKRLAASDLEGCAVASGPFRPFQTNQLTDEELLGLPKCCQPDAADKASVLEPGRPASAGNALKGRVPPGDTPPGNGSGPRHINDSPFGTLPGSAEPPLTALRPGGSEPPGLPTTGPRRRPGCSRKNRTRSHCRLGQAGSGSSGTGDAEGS
Assay: filter binding; three-point estimate, data not shown; Selection buffer PBS pH 7.4, 3 mM MgCl2; RNA 0.5 nM, NgR/Fc 12.5-500 nM for Kd; competition 20 min at 37 C
Conditions: protein: commercial; tags: human IgG Fc fusion; chain copies: 2; label: 32P

B1: Clone 6 (ssRNA)
RNA: GGGUUUACCUAGGUGUAGAUGCUCUCUCUAUUUCAUUCGUAGGCUAUUGGUGCCGCAAAUACUAGCUUUACGAAAGUGACGUCUGAACUGCUUCGAAAA
B1: binds.
